Laboratory results: US20190177366A1 (published 2019)
Numbered stars: 1 amine (or outer) side, 2 acyl side, 3 side chain; on linkers, the order of the positions; unused ones are H or OH. Bridge positions count the residues as written; N and C are the ends. Square brackets hold non-standard residues; d marks the D form. NH(CH2)9CO = O=C(CCCCCCCCCN[*:1])[*:2]; NH(CH2)8CO = O=C(CCCCCCCCN[*:1])[*:2]; hArg = N=C(N)NCCCC[C@H](N)C(=O)O; Aun = NCCCCCCCCCCC(=O)O; Aoc = NCCCCCCCC(=O)O; Ahp = NCCCCCCC(=O)O; Ahx = NCCCCCC(=O)O; Ava = NCCCCC(=O)O

Target: T1, His-tagged, full-length PCSK9 (human, UniProt A8T644 31-152; Q8NBP7 153-692)
T1 construct: Target protein of the PCSK9/EGF(A) TR-FRET assay (10 nM); also called His-PCSK9; proprotein convertase subtilisin/kexin type 9
T1 sequence (A8T644 31-152 limits assumed, chain 1 of 2): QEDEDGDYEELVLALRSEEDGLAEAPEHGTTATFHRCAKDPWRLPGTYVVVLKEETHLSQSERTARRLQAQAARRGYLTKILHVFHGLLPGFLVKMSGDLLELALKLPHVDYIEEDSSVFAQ
T1 sequence (A8T644 other isoform, or with tags, fused parts or gaps limits assumed, chain 2 of 2): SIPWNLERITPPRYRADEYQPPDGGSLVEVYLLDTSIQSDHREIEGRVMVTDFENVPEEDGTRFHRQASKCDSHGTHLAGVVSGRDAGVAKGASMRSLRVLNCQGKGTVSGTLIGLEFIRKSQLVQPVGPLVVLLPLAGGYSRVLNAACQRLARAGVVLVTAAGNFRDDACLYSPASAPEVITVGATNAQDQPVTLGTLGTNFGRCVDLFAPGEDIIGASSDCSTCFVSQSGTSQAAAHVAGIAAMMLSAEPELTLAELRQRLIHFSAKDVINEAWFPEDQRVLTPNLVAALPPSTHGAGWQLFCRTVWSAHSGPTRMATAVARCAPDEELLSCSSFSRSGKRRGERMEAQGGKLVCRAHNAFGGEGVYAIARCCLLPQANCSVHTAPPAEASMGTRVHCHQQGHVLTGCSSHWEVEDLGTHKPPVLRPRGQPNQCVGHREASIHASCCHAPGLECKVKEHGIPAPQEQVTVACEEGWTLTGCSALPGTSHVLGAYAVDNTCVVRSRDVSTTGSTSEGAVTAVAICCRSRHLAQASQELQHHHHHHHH
Test: TR-FRET competition; competitor EGF(A)-Fc on His-PCSK9

Binder | IC50 [µM]
Ac-CRL[dP]WNLQRIGLPC-NH2 (disulfide 1-14; SMILES CC[C@H](C)[C@@H]1NC(=O)[C@H](CCCNC(=N)N)NC(=O)[C@H](CCC(N)=O)NC(=O)[C@H](CC(C)C)NC(=O)[C@H](CC(N)=O)NC(=O)[C@H](Cc2c[nH]c3ccccc23)NC(=O)[C@H]2CCCN2C(=O)[C@H](CC(C)C)NC(=O)[C@H](CCCNC(=N)N)NC(=O)[C@@H](NC(C)=O)CSSC[C@@H](C(N)=O)NC(=O)[C@@H]2CCCN2C(=O)[C@H](CC(C)C)NC(=O)CNC1=O) [Compound 107] | > 50
Ac-CRLPWN[dL]QRIGLPC-NH2 (disulfide 1-14; SMILES CC[C@H](C)[C@@H]1NC(=O)[C@H](CCCNC(=N)N)NC(=O)[C@H](CCC(N)=O)NC(=O)[C@@H](CC(C)C)NC(=O)[C@H](CC(N)=O)NC(=O)[C@H](Cc2c[nH]c3ccccc23)NC(=O)[C@@H]2CCCN2C(=O)[C@H](CC(C)C)NC(=O)[C@H](CCCNC(=N)N)NC(=O)[C@@H](NC(C)=O)CSSC[C@@H](C(N)=O)NC(=O)[C@@H]2CCCN2C(=O)[C@H](CC(C)C)NC(=O)CNC1=O, also called Ac-CRLPWNlQRIGLPC-NH2) [Compound 104] | > 50
Ac-CRLPWNLQ[dR]IGLPC-NH2 (disulfide 1-14; SMILES CC[C@H](C)[C@@H]1NC(=O)[C@@H](CCCNC(=N)N)NC(=O)[C@H](CCC(N)=O)NC(=O)[C@H](CC(C)C)NC(=O)[C@H](CC(N)=O)NC(=O)[C@H](Cc2c[nH]c3ccccc23)NC(=O)[C@@H]2CCCN2C(=O)[C@H](CC(C)C)NC(=O)[C@H](CCCNC(=N)N)NC(=O)[C@@H](NC(C)=O)CSSC[C@@H](C(N)=O)NC(=O)[C@@H]2CCCN2C(=O)[C@H](CC(C)C)NC(=O)CNC1=O) [Compound 102] | > 50
Ac-CRLPWNLQR[Aun]C-NH2 (disulfide 1-11; SMILES CC(=O)N[C@H]1CSSC[C@@H](C(N)=O)NC(=O)CCCCCCCCCCNC(=O)[C@H](CCCNC(=N)N)NC(=O)[C@H](CCC(N)=O)NC(=O)[C@H](CC(C)C)NC(=O)[C@H](CC(N)=O)NC(=O)[C@H](Cc2c[nH]c3ccccc23)NC(=O)[C@@H]2CCCN2C(=O)[C@H](CC(C)C)NC(=O)[C@H](CCCNC(=N)N)NC1=O) [Compound 83] | > 50
Ac-CRLPWNLQRIGL[dP]C-NH2 (disulfide 1-14; SMILES CC[C@H](C)[C@@H]1NC(=O)[C@H](CCCNC(=N)N)NC(=O)[C@H](CCC(N)=O)NC(=O)[C@H](CC(C)C)NC(=O)[C@H](CC(N)=O)NC(=O)[C@H](Cc2c[nH]c3ccccc23)NC(=O)[C@@H]2CCCN2C(=O)[C@H](CC(C)C)NC(=O)[C@H](CCCNC(=N)N)NC(=O)[C@@H](NC(C)=O)CSSC[C@@H](C(N)=O)NC(=O)[C@H]2CCCN2C(=O)[C@H](CC(C)C)NC(=O)CNC1=O) [Compound 99] | > 50
Ac-CRLPWNLQRI[Ahx]C-NH2 (disulfide 1-12; SMILES CC[C@H](C)[C@@H]1NC(=O)[C@H](CCCNC(=N)N)NC(=O)[C@H](CCC(N)=O)NC(=O)[C@H](CC(C)C)NC(=O)[C@H](CC(N)=O)NC(=O)[C@H](Cc2c[nH]c3ccccc23)NC(=O)[C@@H]2CCCN2C(=O)[C@H](CC(C)C)NC(=O)[C@H](CCCNC(=N)N)NC(=O)[C@@H](NC(C)=O)CSSC[C@@H](C(N)=O)NC(=O)CCCCCNC1=O) [Compound 116] | > 50
Ac-CRLPWNLQR[NH(CH2)8CO]C-NH2 (disulfide 1-11; SMILES CC(=O)N[C@H]1CSSC[C@@H](C(N)=O)NC(=O)CCCCCCCCNC(=O)[C@H](CCCNC(=N)N)NC(=O)[C@H](CCC(N)=O)NC(=O)[C@H](CC(C)C)NC(=O)[C@H](CC(N)=O)NC(=O)[C@H](Cc2c[nH]c3ccccc23)NC(=O)[C@@H]2CCCN2C(=O)[C@H](CC(C)C)NC(=O)[C@H](CCCNC(=N)N)NC1=O) [Compound 85] | > 50

The next lines start with the values.

IC50 [µM] | Binder
> 50 | Ac-CRLPWNLQR[dI]GLPC-NH2 (disulfide 1-14; SMILES CC[C@@H](C)[C@H]1NC(=O)[C@H](CCCNC(=N)N)NC(=O)[C@H](CCC(N)=O)NC(=O)[C@H](CC(C)C)NC(=O)[C@H](CC(N)=O)NC(=O)[C@H](Cc2c[nH]c3ccccc23)NC(=O)[C@@H]2CCCN2C(=O)[C@H](CC(C)C)NC(=O)[C@H](CCCNC(=N)N)NC(=O)[C@@H](NC(C)=O)CSSC[C@@H](C(N)=O)NC(=O)[C@@H]2CCCN2C(=O)[C@H](CC(C)C)NC(=O)CNC1=O) [Compound 101]
> 50 | Ac-CRLPWNLQR[NH(CH2)9CO]C-NH2 (disulfide 1-11; SMILES CC(=O)N[C@H]1CSSC[C@@H](C(N)=O)NC(=O)CCCCCCCCCNC(=O)[C@H](CCCNC(=N)N)NC(=O)[C@H](CCC(N)=O)NC(=O)[C@H](CC(C)C)NC(=O)[C@H](CC(N)=O)NC(=O)[C@H](Cc2c[nH]c3ccccc23)NC(=O)[C@@H]2CCCN2C(=O)[C@H](CC(C)C)NC(=O)[C@H](CCCNC(=N)N)NC1=O) [Compound 84]
> 50 | Ac-CRLPWNL[dQ]RIGLPC-NH2 (disulfide 1-14; SMILES CC[C@H](C)[C@@H]1NC(=O)[C@H](CCCNC(=N)N)NC(=O)[C@@H](CCC(N)=O)NC(=O)[C@H](CC(C)C)NC(=O)[C@H](CC(N)=O)NC(=O)[C@H](Cc2c[nH]c3ccccc23)NC(=O)[C@@H]2CCCN2C(=O)[C@H](CC(C)C)NC(=O)[C@H](CCCNC(=N)N)NC(=O)[C@@H](NC(C)=O)CSSC[C@@H](C(N)=O)NC(=O)[C@@H]2CCCN2C(=O)[C@H](CC(C)C)NC(=O)CNC1=O, also called Ac-CRLPWNLqRIGLPC-NH2) [Compound 103]
> 50 | Ac-CRLPW[dN]LQRIGLPC-NH2 (disulfide 1-14; SMILES CC[C@H](C)[C@@H]1NC(=O)[C@H](CCCNC(=N)N)NC(=O)[C@H](CCC(N)=O)NC(=O)[C@H](CC(C)C)NC(=O)[C@@H](CC(N)=O)NC(=O)[C@H](Cc2c[nH]c3ccccc23)NC(=O)[C@@H]2CCCN2C(=O)[C@H](CC(C)C)NC(=O)[C@H](CCCNC(=N)N)NC(=O)[C@@H](NC(C)=O)CSSC[C@@H](C(N)=O)NC(=O)[C@@H]2CCCN2C(=O)[C@H](CC(C)C)NC(=O)CNC1=O) [Compound 105]
> 50 | Ac-CRLPWNLQRI[Ahp]C-NH2 (disulfide 1-12; SMILES CC[C@H](C)[C@@H]1NC(=O)[C@H](CCCNC(=N)N)NC(=O)[C@H](CCC(N)=O)NC(=O)[C@H](CC(C)C)NC(=O)[C@H](CC(N)=O)NC(=O)[C@H](Cc2c[nH]c3ccccc23)NC(=O)[C@@H]2CCCN2C(=O)[C@H](CC(C)C)NC(=O)[C@H](CCCNC(=N)N)NC(=O)[C@@H](NC(C)=O)CSSC[C@@H](C(N)=O)NC(=O)CCCCCCNC1=O) [Compound 121]
> 50 | Ac-CRLPWNLQRIG[dL]PC-NH2 (disulfide 1-14; SMILES CC[C@H](C)[C@@H]1NC(=O)[C@H](CCCNC(=N)N)NC(=O)[C@H](CCC(N)=O)NC(=O)[C@H](CC(C)C)NC(=O)[C@H](CC(N)=O)NC(=O)[C@H](Cc2c[nH]c3ccccc23)NC(=O)[C@@H]2CCCN2C(=O)[C@H](CC(C)C)NC(=O)[C@H](CCCNC(=N)N)NC(=O)[C@@H](NC(C)=O)CSSC[C@@H](C(N)=O)NC(=O)[C@@H]2CCCN2C(=O)[C@@H](CC(C)C)NC(=O)CNC1=O) [Compound 100]
> 50 | Ac-CRLPWNLQ[hArg]IGLPC-NH2 (disulfide 1-14; SMILES CC[C@H](C)[C@@H]1NC(=O)[C@H](CCCCNC(=N)N)NC(=O)[C@H](CCC(N)=O)NC(=O)[C@H](CC(C)C)NC(=O)[C@H](CC(N)=O)NC(=O)[C@H](Cc2c[nH]c3ccccc23)NC(=O)[C@@H]2CCCN2C(=O)[C@H](CC(C)C)NC(=O)[C@H](CCCNC(=N)N)NC(=O)[C@@H](NC(C)=O)CSSC[C@@H](C(N)=O)NC(=O)[C@@H]2CCCN2C(=O)[C@H](CC(C)C)NC(=O)CNC1=O) [Compound 117]
> 50 | Ac-CRLPWNLQRI[Ava]C-NH2 (disulfide 1-12; SMILES CC[C@H](C)[C@@H]1NC(=O)[C@H](CCCNC(=N)N)NC(=O)[C@H](CCC(N)=O)NC(=O)[C@H](CC(C)C)NC(=O)[C@H](CC(N)=O)NC(=O)[C@H](Cc2c[nH]c3ccccc23)NC(=O)[C@@H]2CCCN2C(=O)[C@H](CC(C)C)NC(=O)[C@H](CCCNC(=N)N)NC(=O)[C@@H](NC(C)=O)CSSC[C@@H](C(N)=O)NC(=O)CCCCNC1=O) [Compound 115]
> 50 | Ac-CRLPWNLQR[Aoc]C-NH2 (disulfide 1-11; SMILES CC(=O)N[C@H]1CSSC[C@@H](C(N)=O)NC(=O)CCCCCCCNC(=O)[C@H](CCCNC(=N)N)NC(=O)[C@H](CCC(N)=O)NC(=O)[C@H](CC(C)C)NC(=O)[C@H](CC(N)=O)NC(=O)[C@H](Cc2c[nH]c3ccccc23)NC(=O)[C@@H]2CCCN2C(=O)[C@H](CC(C)C)NC(=O)[C@H](CCCNC(=N)N)NC1=O) [Compound 86]
> 50 | Ac-CRLP[dW]NLQRIGLPC-NH2 (disulfide 1-14; SMILES CC[C@H](C)[C@@H]1NC(=O)[C@H](CCCNC(=N)N)NC(=O)[C@H](CCC(N)=O)NC(=O)[C@H](CC(C)C)NC(=O)[C@H](CC(N)=O)NC(=O)[C@@H](Cc2c[nH]c3ccccc23)NC(=O)[C@@H]2CCCN2C(=O)[C@H](CC(C)C)NC(=O)[C@H](CCCNC(=N)N)NC(=O)[C@@H](NC(C)=O)CSSC[C@@H](C(N)=O)NC(=O)[C@@H]2CCCN2C(=O)[C@H](CC(C)C)NC(=O)CNC1=O) [Compound 106]
